The results in this text go back to paper PMC9665845.

The experiment addresses human Kap-β2/Transportin-1 (TNPO1), GST tag removed (human) (UniProt Q92973).
Chain of UniProt Q92973 (Q92973 whole entry): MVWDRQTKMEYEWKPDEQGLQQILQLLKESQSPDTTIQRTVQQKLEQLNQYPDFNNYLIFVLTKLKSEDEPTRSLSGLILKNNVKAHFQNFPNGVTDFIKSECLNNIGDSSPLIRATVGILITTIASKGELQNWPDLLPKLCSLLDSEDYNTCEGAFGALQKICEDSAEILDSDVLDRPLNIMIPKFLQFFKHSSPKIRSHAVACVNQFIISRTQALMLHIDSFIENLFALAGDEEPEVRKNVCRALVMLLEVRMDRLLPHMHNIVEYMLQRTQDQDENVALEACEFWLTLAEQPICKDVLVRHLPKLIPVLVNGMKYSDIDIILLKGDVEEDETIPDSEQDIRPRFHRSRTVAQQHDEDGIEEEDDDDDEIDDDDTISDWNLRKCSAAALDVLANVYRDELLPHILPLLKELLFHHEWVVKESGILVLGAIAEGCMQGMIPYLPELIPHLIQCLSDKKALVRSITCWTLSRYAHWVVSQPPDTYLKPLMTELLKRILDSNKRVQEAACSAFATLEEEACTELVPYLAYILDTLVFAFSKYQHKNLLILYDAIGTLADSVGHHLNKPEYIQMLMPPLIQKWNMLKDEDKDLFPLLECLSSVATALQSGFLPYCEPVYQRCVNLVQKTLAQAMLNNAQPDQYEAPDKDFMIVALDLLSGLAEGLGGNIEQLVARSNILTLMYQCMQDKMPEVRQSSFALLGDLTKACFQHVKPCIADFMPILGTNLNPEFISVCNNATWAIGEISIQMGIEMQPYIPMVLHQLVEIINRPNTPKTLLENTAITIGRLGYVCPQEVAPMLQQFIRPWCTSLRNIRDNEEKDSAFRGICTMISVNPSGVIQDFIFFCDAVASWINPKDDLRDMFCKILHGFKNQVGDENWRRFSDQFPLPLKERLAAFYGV

In the case of GGSYNDFGNYNNQSSNAAAAKGGNFGGAFEAAANPTKR [M9M-A peptide], the percent reduction of TCF/LEF luciferase activity in 3T3 mouse fibroblast reporter cells activated by human β-catenin-GFP worked out at 24%.
GGSYNDFGNYNNQSSNFGPMKGGNFGGRFEPYANPTKR [M9M peptide] showed a percent reduction of TCF/LEF luciferase activity in 3T3 mouse fibroblast reporter cells activated by human β-catenin-GFP; blocks TNPO1 with β-catenin of 45%.
